Reference: patent US8372810B2, “Anti-tumor drug, medicament, composition, and use thereof” (Gene Signal International SA, priority 2007, dated 2013)
Where “and” joins values, the source holds several entries; their conditions need not be identical. Identical values can stand only once.

Key:
NCI H460 human tumor = NCI H460 human tumor xenograft in Swiss Nude mice, tumor growth; format: in vivo; parameters: key to MRTV D28 / MRTV D12 / MRTV D14 / MRTV D16 / MRTV D18 / MRTV D20 / MRTV D22 / MRTV D24 / MRTV D26: ratio of mean tumor volume at day t to volume at injection (D12); conditions: for MRTV D12: reference day
Protocol: NCI H460 cells were cultured as adherent cells in complete RPMI 1640 medium (Ref. CM1RRM08-01, batch No. 623615, Eurobio, France) containing 2 mM L-Glutamine, adjusted to 4.5 g/L glucose (Ref. G7528, batch No. 033K0121, Sigma, France) and supplemented with 10 mM HEPES (Ref. H0887, batch No. 113K2338, Sigma, France), 1.0 mM sodium pyruvate (Ref. CSTVAT00-0U, batch No. 520818, Sigma, France) and 10% fetal calf serum (FCS; Ref. CVFSVF00-01, batch No. S13021, Eurobio, France) under a 37° C., 5% CO2 humidified atmosphere. They were amplified in 75 cm^2-flasks to reach 90×10^6 cells.
At D0, NCI H460 cells (human lung carcinoma) were collected from 75 cm^2-flasks by removing the medium and adding 3 ml of trypsine-EDTA (Ref. CEZTDA00-0U, batch No. 633920, Eurobio, France). After 5 min of incubation at 37° C., cells were detached from the plastic and the enzymatic reaction was stopped by adding 3 ml of RPMI 1640 medium containing 10% fetal calf serum. Cells were then centrifuged at 700 g for 5 min at room temperature. They were resuspended in serum-free RPMI 1640 culture medium containing L-Glutamine (2 mM), glucose (4.5 g/l), sodium pyruvate (1 mM) and buffered with HEPES (10 mM). Cells were counted and the number of viable NCI H460 cells was >99%. The number of cells was then adjusted to 25.10^6 cells/ml in serum-free medium.
NCI H460 cells (5.10^6 cells/mouse in 200 μL of serum-free medium) were then implanted subcutaneously in the right flank of each mouse.
At D12 post-implantation of the NCI H460 cells, the thirty mice were randomized into six groups of 5 mice. Tumor volumes had reached 228 to 468 mm^3 and mean tumor volumes were not statistically different between groups after randomization.
All solutions were injected IP.
Animals have been observed daily.
• Tumor growth curves were drawn using the mean tumor volumes (MTV), • Mean Relative tumor volume (MRTV) was calculated as the ratio between the MTV at time t and the volume at the time of injection (t=D12), • Tumor growth inhibition (T/C, %) was evaluated as the ratio of the median tumor volumes of treated groups versus vehicle group.
Statistical analyses of tumor volumes (V), time to reach ‘V’, tumor-doubling time (DT), relative tumor volume (RTV) and tumor growth inhibition (T/C) were performed for all groups. Data are expressed as mean±SD. Groups of data were normally distributed. Univariate analysis were performed to assess differences between groups. Statistical significance was then determined using the Student's t test. A P<0.05 was considered as statistically significant. The Statistical analysis was performed using XLSTAT (Addinsoft, France).

HUVEC cells = experiment: Inhibition of endothelial cell proliferation in vitro (MTT); format: cell-based, human
Protocol: HUVEC cells were cultured to confluency in complete EGM2-MV medium (Cambrex) at 37° C. and in 5% CO2 humidified atmosphere. Cells were then collected by trypsine-EDTA digestion (Versene, Eurobio). After 5 min, the enzymatic reaction was stopped by adding 3 ml of the culture medium containing 5% FCS. Cells were then centrifuged at 220 g for 10 min at room temperature, washed twice with 5 ml of culture medium, suspended in complete culture medium, counted and adjusted to 50 000 cells/ml. One hundred μL per well were then distributed to a 96-well cell culture grade micro-plate (5 000 cells/well) and incubated with different concentrations of the purified protein 497C-T2 in Tris-HCl 20 mM buffer (pH 8), containing 150 mM NaCl and urea 2M; this buffer was used as control.
After 42 hrs at 37° C., cell proliferation was measured using thiazolyl blue tetrazolium bromide (MTT) method. Briefly, MTT (Sigma) was dissolved in PBS at 5 mg/ml, the solution was filtered (0.22 μm) and 10 μl were added to each well of the 96-well micro-plates. After 3 hrs of incubation at 37° C., 5% CO2 humidified atmosphere, the micro-plates were centrifuged at 220×g for 10 min, the supernatant was discarded, and the crystals dissolved by the addition of 100 μl of DMSO to each well. The optical density (OD) at 570 nm was then measured using μQuant micro-plate reader (Bio-Tek Instrument gmbh, Colmar, France) coupled to the KC4 (Bio-Tek) software.

[1] = 497C-T2 10 mg/kg IP Q1DX16 (G4)
[2] = 497C-T2 10 mg/kg IP Q1DX16 (G4), 10 mg/kg
[3] = 497C-T2 10 mg/kg IP Q1DX16 (G4), listed as 497C-T2-Batch A
[4] = 497C-T2 10 mg/kg IP once daily Q1DX16 (G4)
[5] = IP Q2DX8, CDDP 5 mg/kg (G2), 497C-T2 10 mg/kg (G3), 497C-T2 10 mg/kg + CDDP 5 mg/kg (G5)
[6] = IP Q2DX8, CDDP 5 mg/kg (G2), 497C-T2 10 mg/kg (G3), 497C-T2 10 mg/kg + CDDP 5 mg/kg (G5), listed as 497C-T2-Batch A

B1: 497C-T2: entire LEL domain of protein 497C, SEQ ID NO:3 (112 amino acids); as produced SEQ ID NO:8, with N-terminal His-Tag and C-terminal tail, 24 kD (protein, listed as Homo sapiens)
chain: MHHHHHHSSGLVPRGSGMKETAAAKFERQHMDSPDLGTDDDDKISGFVFRHEIKDTFLRTYTDAMQTYNGNDERSRAVDHVQRSLSCCGVQNYTNWSTSPYFLEHGIPPSCCMNETDCNPQDLHNLTVAATKVNQKGCYDLVTSFMETNMGIIAGDRASPQPWRYRIRILAPSTSLRPHSSTTTTTTXIRLLTKPERKLSWLLPPLSNN
modifications: X: residue not identified in the source
- MTV at D14 (NCI H460 human tumor; [1]): 468.85 mm^3
- MTV at D24 (NCI H460 human tumor; [1]): 2289.22 mm^3
- T/C at D14 (treated/vehicle tumor volume ratio) (NCI H460 human tumor; [1]): 46.90%
- T/C at D24 (treated/vehicle tumor volume ratio) (NCI H460 human tumor; [1]): 71.04%
- DT (doubling time of tumor volume) (NCI H460 human tumor; [2]): 5.9 ± 1.21 days
- MTV at D28 (NCI H460 human tumor; [2]): 3167±1681 mm^3
- T/C at D28 (treated/vehicle tumor volume ratio) (NCI H460 human tumor; [2]): 71%
- DT (doubling time of tumor volume) (NCI H460 human tumor; [3]): 5.9 days
- MTV at D28 (NCI H460 human tumor; [3]): 3167.34 mm^3
- T/C at D28 (treated/vehicle tumor volume ratio) (NCI H460 human tumor; [3]): 71.32%
- MRTV D14 (NCI H460 human tumor; [4]): 1.08
- MRTV D16 (NCI H460 human tumor; [4]): 1.00
- MRTV D18 (NCI H460 human tumor; [4]): 1.69
- MRTV D20 (NCI H460 human tumor; [4]): 2.63
- MRTV D22 (NCI H460 human tumor; [4]): 3.08
- MRTV D24 (NCI H460 human tumor; [4]): 3.08
- MRTV D26 (NCI H460 human tumor; [4]): 4.89
- MRTV D28 (NCI H460 human tumor; [4]): 6.76
- DT (doubling time of tumor volume) (NCI H460 human tumor; [5]): 4.08 ± 1.4 days
- MRTV D14 (NCI H460 human tumor; [5]): 1.37
- MRTV D16 (NCI H460 human tumor; [5]): 1.70
- MRTV D18 (NCI H460 human tumor; [5]): 2.46
- MRTV D20 (NCI H460 human tumor; [5]): 2.81
- MRTV D22 (NCI H460 human tumor; [5]): 3.30
- MRTV D24 (NCI H460 human tumor; [5]): 3.22
- MRTV D26 (NCI H460 human tumor; [5]): 5.80
- MRTV D28 (NCI H460 human tumor; [5]): 7.37
- MTV at D14 (NCI H460 human tumor; [5]): 571.00 mm^3
- MTV at D24 (NCI H460 human tumor; [5]): 1955.02 mm^3
- MTV at D28 (NCI H460 human tumor; [5]): 2482±2075 mm^3
- T/C at D14 (treated/vehicle tumor volume ratio) (NCI H460 human tumor; [5]): 57.12%
- T/C at D24 (treated/vehicle tumor volume ratio) (NCI H460 human tumor; [5]): 60.67%
- T/C at D28 (treated/vehicle tumor volume ratio) (NCI H460 human tumor; [5]): 56%
- DT (doubling time of tumor volume) (NCI H460 human tumor; [6]): 4.08 days
- MTV at D28 (NCI H460 human tumor; [6]): 2481.61 mm^3
- T/C at D28 (treated/vehicle tumor volume ratio) (NCI H460 human tumor; [6]): 55.88%
- anti-tumoral activity (NCI H460 human tumor; NCI H460, monotherapy (G3, G4) or combined with CDDP (G5, G6)): moderate anti-tumoral activity
- MRTV D12 (NCI H460 human tumor; [4]): 1.00
- MRTV D12 (NCI H460 human tumor; [5]): 1.00
- concentration significantly inhibiting human endothelial cell proliferation (as low as) (HUVEC cells): 500 nM
- % inhibition of endothelial cell proliferation (HUVEC cells; 5 μM (122 μg) 497C-T2, 42 hrs, relative to control, 5 µM): 77% and 75%
- inhibition of human endothelial cell proliferation (HUVEC cells; increasing concentrations, FIG. 1): inhibited human endothelial cell proliferation in a dose dependent manner
